Reference: patent publication USRE48137E1, “Multivalent vaccine protection from Staphylococcus aureus infection” (UNIVERSITY OF MARYLAND, BALTIMORE, priority 2012, dated 2020)

Tested on: S. aureus MRSA-M2
Assay: murine tibial implant model of S. aureus infection
Format: in vivo
Conditions: C57BL/6 mice, tibiae CFU at 21 days post-challenge; 12.5 μg per antigen IP at 28 and 14 days prior to challenge
Source text: Mice. Inbred C57BL/6 (6-8 weeks old) were purchased from Jackson Laboratories (Bar Harbor, Me.). Mice were maintained under micro-isolator conditions in the animal facility at the University of Maryland Dental School (Baltimore, Md.), in accordance with protocols reviewed and approved by the Institutional Animal Care and Use Committee (IACUC).
Bacterial strain and preparation of infectious inocula. […] Cells were centrifuged, rinsed with PBS, counted via a Petroff Hausser counter, and diluted to 1×10^6 CFU/ml. […]
Bone Cultures. […] In addition, non-vaccinated mice (alum alone) and mice vaccinated with the quadrivalent vaccine, the single additional antigen SA0119, or all antigens combined were euthanized at 21 days post infection and tibial colony-forming units (CFUs) were determined as described above. Dissemination of the S. aureus infection was monitored by homogenizing kidneys and plating the homogenates as described above.
Statistical Analysis. Mean and SD were calculated and analyzed using Student's t-test with a P value of <0.05 to determine statistical significance. Experiments determining the percentage of mice still infected after vancomycin or PBS treatment were analyzed using Fishers Exact test with a p value of <0.05 for statistical significance. […]

B1: SACOL0119 vaccine: planktonic-specific monovalent vaccine; S. aureus polypeptide SA0119, SEQ ID NO:14 (protein, listed as Staphylococcus aureus)
chain: MKKLATVGSLIVTSTLVFSSMPFQNAHADTTSMNVPNKQSQNVQNHRPYGGVVPQGMTQAQYTELEKTLPQLSAGSNMQDYNMKLYDATQNIADKYNVIITTNVGVFKPHAVRDMNGHALPLTKDGNFYQTNVDANGVNHGGSEMVQNKTGHMSQQDHMNQNTHMNQQPQIQQGHMQSSNHQMMSPKANMHSSNHQMNQSNKKVLPAAGESMTSSILTASIAALLLVSGLFLAFRRRSTNK
bacterial clearance (percent of animals cleared of S. aureus): 40%
